Publication PMC5633918, “The coproporphyrin ferrochelatase of Staphylococcus aureus: mechanistic insights into a regulatory iron-binding site” (Biochemical Journal, 2017)

Substrate: CC1=C(CCC(=O)O)c2cc3nc(cc4[nH]c(cc5[nH]c(cc1n2)c(C)c5CCC(=O)O)c(CCC(=O)O)c4C)C(CCC(=O)O)=C3C
Experiment: purified protein
Type: biochemical, Staphylococcus aureus
Settings: 0.7 µM Fe2+ (sub-inhibitory), 0.1 M Tris-HCl pH 8.1, 0.5% sodium cholate, 0.5% Tween 20, 1 mM beta-mercaptoethanol, 30 °C

B1: S. aureus CpfC (coproporphyrin ferrochelatase) (Staphylococcus aureus subsp. aureus USA300) (protein)
chain: MTKKMGLLVMAYGTPYKESDIEPYYTDIRHGKRPSEEELQDLKDRYEFIGGLSPLAGTTDDQADALVSALNKAYADVEFKLYLGLKHISPFIEDAVEQMHNDGITEAITVVLAPHYSSFSVGSYDKRADEEAAKYGIQLTHVKHYYEQPKFIEYWTNKVNETLAQIPEEEHKDTVLVVSAHSLPKGLIEKNNDPYPQELEHTALLIKEQSNIEHIAIGWQSEGNTGTPWLGPDVQDLTRDLYEKHQYKNFIYTPVGFVCEHLEVLYDNDYECKVVCDDIGANYYRPKMPNTHPLFIGAIVDEIKSIF
notes: tag removal not mentioned
  Km: 1.5 ± 0.2 µM
  kcat: 0.175 ± 0.0067 s⁻¹
